In patent publication US20220033501A1 (SHANGHAI PHARMAEXPLORER, published 2022):

T1: murine TIM-3 protein with hFc tag (mTIM-3-hFc protein) (mouse; human, UniProt Q8VIM0 29-191)
T1 construct: Made in HEK293 cells; also called mouse TIM-3 extracellular domain protein; not shown: human IgG Fc fragment (hFc) of the pCpC vector
T1 chain: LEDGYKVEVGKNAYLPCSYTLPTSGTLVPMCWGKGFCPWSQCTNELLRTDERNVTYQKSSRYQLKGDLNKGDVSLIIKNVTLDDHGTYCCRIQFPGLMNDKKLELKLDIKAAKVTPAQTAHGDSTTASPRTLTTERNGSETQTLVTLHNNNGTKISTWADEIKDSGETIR

T2: human TIM-3 protein with hFc tag (hTIM-3-hFc protein) (human, UniProt Q8TDQ0 22-200)
T2 construct: also called immunogen 1; human TIM-3 extracellular domain protein; not shown: human IgG Fc fragment (hFc) of the pCpC vector
T2 sequence: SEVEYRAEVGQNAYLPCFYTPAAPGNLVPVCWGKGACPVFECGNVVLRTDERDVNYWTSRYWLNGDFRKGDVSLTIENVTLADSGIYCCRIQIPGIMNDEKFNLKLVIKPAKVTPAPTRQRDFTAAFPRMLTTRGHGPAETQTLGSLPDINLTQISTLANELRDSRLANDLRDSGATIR

T3: monkey TIM-3 extracellular domain protein with hFc tag (cTIM-3-hFc) (monkey)
T3 construct: not shown: human IgG Fc fragment (hFc) of the pCpC vector
T3 chain: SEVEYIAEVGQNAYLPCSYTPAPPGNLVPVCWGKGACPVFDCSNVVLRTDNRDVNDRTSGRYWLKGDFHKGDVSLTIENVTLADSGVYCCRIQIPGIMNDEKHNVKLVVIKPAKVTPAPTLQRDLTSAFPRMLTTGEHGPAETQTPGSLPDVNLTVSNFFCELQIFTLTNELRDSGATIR

T4: murine TIM-3 extracellular domain protein with hFc tag (mTIM-3-hFc) (mouse, UniProt Q8VIM0 29-191)
T4 construct: also called mouse TIM-3 extracellular domain protein; not shown: human IgG Fc fragment (hFc) of the pCpC vector
T4 chain: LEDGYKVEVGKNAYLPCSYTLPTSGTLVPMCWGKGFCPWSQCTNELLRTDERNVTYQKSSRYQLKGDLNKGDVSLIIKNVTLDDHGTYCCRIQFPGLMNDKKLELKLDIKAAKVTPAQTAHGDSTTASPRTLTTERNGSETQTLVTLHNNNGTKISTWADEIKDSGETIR

T5: monkey TIM-3 on CHOK1 stable cell line (CHOK1-cTIM-3) (monkey)
T5 chain: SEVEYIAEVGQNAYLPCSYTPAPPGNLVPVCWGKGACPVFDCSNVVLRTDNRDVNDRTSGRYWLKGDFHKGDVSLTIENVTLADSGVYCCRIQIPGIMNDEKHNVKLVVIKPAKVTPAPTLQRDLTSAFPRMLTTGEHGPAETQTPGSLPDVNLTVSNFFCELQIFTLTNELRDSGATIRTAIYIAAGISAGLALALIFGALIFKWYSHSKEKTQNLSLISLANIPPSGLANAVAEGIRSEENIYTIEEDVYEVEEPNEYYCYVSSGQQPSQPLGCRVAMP


Columns and labels:
[1] = target: T1, murine TIM-3 protein with hFc tag …; test: ELISA, coated mTIM-3-hFc
[2] = target: T2, human TIM-3 protein with hFc tag …; test: ELISA, coated hTIM-3-hFc; antibody 6.6667 nM
Source text: (§1) The amino acid sequence 22-200 of the extracellular domain of the human TIM-3 protein described in the step of Example 1 (as shown in SEQ ID NO. 71 in the sequence listing) was cloned into a pCpC vector having a human IgG Fc fragment (hFc), and transfected into HEK293 cells. The cell culture medium was collected, and purified to obtain the human TIM-3 protein with hFc tag (herein referred to as hTIM-3-hFc protein). The amino acid sequence 22-201 of the extracellular domain of the monkey TIM-3 protein (as shown in SEQ ID NO. 72 in the sequence listing) was cloned into a pCpC vector having a human IgG Fc fragment (hFc), and transfected into HEK293 cells. The cell culture medium was collected, and purified to obtain the monkey TIM-3 protein with hFc tag (herein referred to as cTIM-3-hFc protein). […] The cell culture medium was collected, and purified to obtain the murine TIM-3 protein with hFc tag (herein referred to as mTIM-3-hFc protein). Purified human, monkey, and mouse TIM-3 extracellular domain proteins (hTIM-3-hFc, cTIM-3-hFc, and mTIM-3-hFc) were diluted with PBS to a final concentration of 1.0 μg/ml and then added to a 96-well ELISA plate with 100 μl per well. The plate was sealed with plastic film and incubated overnight at 4° C. The plate was washed 4 times with the plate washing solution (PBS+0.01% Tween20) on the next day, and added with the blocking solution (PBS+0.01% Tween20+1% BSA) and sealed at room temperature for 1-2 hours. The blocking solution was poured out. 50-100 μl of the antibody sample to be tested was added to each well. The plate was incubated at 37° C. for 1-2 hours, and washed 2-3 times with plate washing solution (PBS+0. 01% Tween20). HRP (horseradish peroxidase) labeled secondary antibody was added. The plate was incubated at 37° C. for 1-2 hours, and washed 2-3 times with plate washing solution (PBS+0. 01% Tween20). […] of TMB substrate was added to each well. After incubated at room temperature for 15-30 minutes, the plate was added with […] stop solution (1.0N HCl) to each well. An ELISA plate reader (TiterMax 384plus, Molecular Device) was used to read the A450 nm value.

[3] = target: T1, murine TIM-3 protein with hFc tag …; test: ELISA, coated mTIM-3-hFc; antibody 0.0067 nM
Source text: as §1

[4] = target: T1, murine TIM-3 protein with hFc tag …; test: ELISA, coated mTIM-3-hFc; antibody 66.667 nM
Source text: as §1

[5] = target: T3, monkey TIM-3 extracellular domain …; test: ELISA, coated monkey TIM-3 ECD protein, 0.0067 nM antibody
[6] = target: T4, murine TIM-3 extracellular domain …; test: ELISA, coated mouse TIM-3 ECD protein, 0.0001 nM antibody
[7] = target: T5, monkey TIM-3 on CHOK1 stable cell line …; test: FACS, CHOK1-cTIM-3 cells, 1.6 nM antibody
[8] = target: T3, monkey TIM-3 extracellular domain …; test: ELISA, coated monkey TIM-3 ECD protein, 0 nM antibody

Binder | binding result [1] | OD450 [2] | OD450 [3] | OD450 [4] | OD450 [5] | OD450 [6] | Mean fluorescence intensity [7] | OD450 [8]
215A8F2 fully human TIM-3 antibody (human IgG4, kappa) (antibody, V domains shown) VH: QVQLQQWGAGLLKPSETLSLTCTVYGGSFSGYYWNWIRQPPGKGLEWLGEINHSGSTNYNPSLKRRVTISVDTSKNQFSLKLSSVTAADTAVYYCARVYYYGPFDFWGQGTLVTVSS VL: not shown |  |  |  |  | 0.33 | 0.21 | 252 | 0.13
7A4F10 (TIM-3 antibody purified from hybridoma, chimeric antibody of Example 2) (antibody, V domains shown, From hybridoma of Harbour H2L2 transgenic mice: human variable regions, rat constant regions) VH: EVQLLESGGGLVQPGGSLRLSCAASGFTFRTHLISWVRQAPGKGLEWVAAITGSGGSTYYADSVKGRFIISRDNSKNTLFLQMNSLRAEDTAVYYCAKDGGSGSYDDFWGQGTLVTVSS VL: ETVLTQSPVTLSLSPGERATLSCRASQSVGSYLAWYQQKPGQAPRLLIYDASNRATGIPARFSGSGSGTDFTLTISSLEPEDFAVYYCQQRSNWPPTFGQGTKVEIK | no binding (tested: 66.667 nM) | 2.92 | 0.64 | 0.66 |  |  |  | 
57F4E5 fully human TIM-3 antibody (human IgG4, kappa) (antibody, V domains shown) VH: EVQLVESGGGLVQPGGSLRLSCAASGFTFSSYWMSWVRQAPGKGLEWVANIKQDGSEKYYVDSVKGRFTISRDSAKNSLYLQMNSLRAEDTAMYFCARDSNFFDYWGQGTLVTVSS VL: ETVMTQSPATLSVSPGERATLSCRASQSVSSNLAWYQRKPGQAPRLLIYFSSTRATGIPARFSGSGSGTEFTLTISSLQSEDFAVYYCQQYNNWPLTFGGGTKVEIK |  |  |  |  | 0.32 | 0.24 | 207 | 0.16
18D2H2 (TIM-3 antibody purified from hybridoma, chimeric antibody of Example 2) (antibody, V domains shown, From hybridoma of Harbour H2L2 transgenic mice: human variable regions, rat constant regions) VH: EVQLVESGGDLVQPGGSLRLSCAASGFTFSTYWMTWVRQAPGRGLEWVANIKQDGSAKYYVDSVKGRFTLSRDDAKNSLYLQMNSLRAEDTAVYYCARGSNWFDYWGQGTLVTVSS VL: ETVMTQSPATLSVSPGERATLSCRANQNVYSNLAWYQQKPGQAPRLLIYDASTRATGFPARFSGSGSGTEFTLTISSLQSEDFAVYYCQQYNNWPLTFGGGTKVEIK | no binding (tested: 66.667 nM) | 2.86 | 0.63 | 0.85 |  |  |  | 
39E5H1 (TIM-3 antibody purified from hybridoma, chimeric antibody of Example 2) (antibody, V domains shown, From hybridoma of Harbour H2L2 transgenic mice: human variable regions, rat constant regions) VH: EVQLVESGGGLVQPGGSLRLSCAASGFTFSSYWMSWVRQAPGKGLEWVANIKRGGSERYYVDSVKGRFTISGDNAKNSVYLQMNSLRAEDTAVYYCARGSNWFDPWGQGTLVTVSS VL: ETVMTQSPAILSVSPGERATLSCRASQSVYSNLAWYQQKLGQAPRLLIYDASTRATGIPARFSGSGSGTEFTLTISSLQSEDFAVYYCQQYNNWPITFGQGTRLEIK | no binding (tested: 66.667 nM) | 3.34 | 0.64 | 0.9 |  |  |  | 

Results, then the binder that gave them:

binding result [1] | OD450 [2] | OD450 [3] | OD450 [4] | OD450 [5] | OD450 [6] | Mean fluorescence intensity [7] | OD450 [8] | Binder
no binding (tested: 66.667 nM) | 3.4 | 0.65 | 1.1 |  |  |  |  | 34B6D8 (TIM-3 antibody purified from hybridoma, chimeric antibody of Example 2) (antibody, V domains shown, From hybridoma of Harbour H2L2 transgenic mice: human variable regions, rat constant regions) VH: EVQLVESGGGLVQPGGSLRLSCAASGFTFSTYWMTWVRQAPGKRLEWVANIKQGGGDKYYVDSVKGRFTISTDNAKNSLYLQMNSLRAEDTAVYYCARGSNWFDPWGQGTLVTVSS VL: EIVMTQSPATLSMSPGERATLSCRASQSVYDNLAWYQQKPGQAPRLLIYGASTRATGIPARFSGSGSGTEFTLTISSLQSEDFALYYCQQYTHWPITFGQGTRLEIK
no binding (tested: 66.667 nM) | 3.15 | 0.64 | 0.77 |  |  |  |  | 215A8F2 (TIM-3 antibody purified from hybridoma, chimeric antibody of Example 2) (antibody, V domains shown, From hybridoma of Harbour H2L2 transgenic mice: human variable regions, rat constant regions) VH: QVQLQQWGAGLLKPSETLSLTCTVYGGSFSGYYWNWIRQPPGKGLEWLGEINHSGSTNYNPSLKRRVTISVDTSKNQFSLKLSSVTAADTAVYYCARVYYYGPFDFWGQGTLVTVSS VL: not shown
 |  |  |  | 0.18 | 0.22 | 177 | 0.13 | 7A4F10 fully human TIM-3 antibody (human IgG4, kappa) (antibody, V domains shown) VH: EVQLLESGGGLVQPGGSLRLSCAASGFTFRTHLISWVRQAPGKGLEWVAAITGSGGSTYYADSVKGRFIISRDNSKNTLFLQMNSLRAEDTAVYYCAKDGGSGSYDDFWGQGTLVTVSS VL: ETVLTQSPVTLSLSPGERATLSCRASQSVGSYLAWYQQKPGQAPRLLIYDASNRATGIPARFSGSGSGTDFTLTISSLEPEDFAVYYCQQRSNWPPTFGQGTKVEIK
no binding (tested: 66.667 nM) | 2.57 | 0.64 | 0.7 |  |  |  |  | 134H3G6 (TIM-3 antibody purified from hybridoma, chimeric antibody of Example 2) (antibody, V domains shown, From hybridoma of Harbour H2L2 transgenic mice: human variable regions, rat constant regions) VH: EVQLVESGGGLVQPGGSLRLSCAASGFTFSNSWMTWVRQAPGKGLEWVANIKQAGTEKYYVDSVKGRFTISRDNAKNSLYLQMNSLRAEDTAVYYCNSGSNYFDYWGQGTLVTVSS VL: EIVMTQSPATLSVSPGERATLSCRARQNFYSNLAWYQQKPGQAPRLLIYGASTRATGIPARFSGSGSGTEFTLTISSLQSEDFAVYYCQQYNNWPLTFGGGTKVEIK
 |  |  |  | 0.3 | 0.22 | 326 | 0.13 | 134H3G6 fully human TIM-3 antibody (human IgG4, kappa) (antibody, V domains shown) VH: EVQLVESGGGLVQPGGSLRLSCAASGFTFSNSWMTWVRQAPGKGLEWVANIKQAGTEKYYVDSVKGRFTISRDNAKNSLYLQMNSLRAEDTAVYYCNSGSNYFDYWGQGTLVTVSS VL: EIVMTQSPATLSVSPGERATLSCRARQNFYSNLAWYQQKPGQAPRLLIYGASTRATGIPARFSGSGSGTEFTLTISSLQSEDFAVYYCQQYNNWPLTFGGGTKVEIK
no binding (tested: 66.667 nM) | 3.29 | 0.68 | 0.74 |  |  |  |  | 57F4E5 (TIM-3 antibody purified from hybridoma, chimeric antibody of Example 2) (antibody, V domains shown, From hybridoma of Harbour H2L2 transgenic mice: human variable regions, rat constant regions) VH: EVQLVESGGGLVQPGGSLRLSCAASGFTFSSYWMSWVRQAPGKGLEWVANIKQDGSEKYYVDSVKGRFTISRDSAKNSLYLQMNSLRAEDTAMYFCARDSNFFDYWGQGTLVTVSS VL: ETVMTQSPATLSVSPGERATLSCRASQSVSSNLAWYQRKPGQAPRLLIYFSSTRATGIPARFSGSGSGTEFTLTISSLQSEDFAVYYCQQYNNWPLTFGGGTKVEIK
